Changes are numbered by the printed parent chain. Numbers in names are those of the source.
T1: Complement C2 (human)
T1 chain: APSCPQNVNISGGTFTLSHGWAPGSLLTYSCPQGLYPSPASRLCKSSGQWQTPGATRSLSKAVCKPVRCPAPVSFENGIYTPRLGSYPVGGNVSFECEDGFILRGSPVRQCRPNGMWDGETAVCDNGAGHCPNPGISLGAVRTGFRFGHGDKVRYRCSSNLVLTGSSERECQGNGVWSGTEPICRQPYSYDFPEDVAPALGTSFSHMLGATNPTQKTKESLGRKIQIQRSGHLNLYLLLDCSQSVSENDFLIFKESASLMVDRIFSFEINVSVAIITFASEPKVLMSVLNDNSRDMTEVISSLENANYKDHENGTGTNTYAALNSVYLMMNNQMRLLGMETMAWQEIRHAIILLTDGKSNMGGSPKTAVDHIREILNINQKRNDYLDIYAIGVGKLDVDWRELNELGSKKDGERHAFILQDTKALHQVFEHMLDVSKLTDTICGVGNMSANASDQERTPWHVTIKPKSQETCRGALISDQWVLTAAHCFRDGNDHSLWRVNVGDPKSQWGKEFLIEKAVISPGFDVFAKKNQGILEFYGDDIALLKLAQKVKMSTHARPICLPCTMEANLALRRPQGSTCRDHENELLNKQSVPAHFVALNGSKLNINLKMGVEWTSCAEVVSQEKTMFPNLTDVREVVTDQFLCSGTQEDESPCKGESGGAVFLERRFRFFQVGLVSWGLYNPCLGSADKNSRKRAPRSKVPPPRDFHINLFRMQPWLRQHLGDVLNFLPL

T2: rat complement C2 (in plasma of treated rats), Q8CIP8
T2 chain: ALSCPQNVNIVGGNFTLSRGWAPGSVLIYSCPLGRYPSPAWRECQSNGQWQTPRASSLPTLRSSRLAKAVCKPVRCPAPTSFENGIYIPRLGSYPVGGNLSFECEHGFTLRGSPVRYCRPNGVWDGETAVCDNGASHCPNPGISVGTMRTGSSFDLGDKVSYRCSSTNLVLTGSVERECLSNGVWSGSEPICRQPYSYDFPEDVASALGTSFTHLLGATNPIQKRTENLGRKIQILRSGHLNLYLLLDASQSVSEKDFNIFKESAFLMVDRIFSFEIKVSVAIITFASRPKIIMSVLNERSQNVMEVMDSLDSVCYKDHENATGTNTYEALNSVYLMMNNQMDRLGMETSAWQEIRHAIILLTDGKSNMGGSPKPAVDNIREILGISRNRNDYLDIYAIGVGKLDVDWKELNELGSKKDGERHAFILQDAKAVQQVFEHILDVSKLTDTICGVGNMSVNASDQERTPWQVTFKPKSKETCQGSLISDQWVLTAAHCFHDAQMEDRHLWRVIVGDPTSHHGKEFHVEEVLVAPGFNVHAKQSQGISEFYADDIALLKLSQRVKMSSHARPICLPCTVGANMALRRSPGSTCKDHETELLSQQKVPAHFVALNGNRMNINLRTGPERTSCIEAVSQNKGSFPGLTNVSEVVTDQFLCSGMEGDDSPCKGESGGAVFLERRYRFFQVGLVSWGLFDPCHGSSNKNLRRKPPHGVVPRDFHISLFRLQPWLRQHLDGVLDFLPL

B1: modified MT-SP1 CB252 (Y146E/K224N) protease domain (protein)
chain: VVGGTDADEGEWPWQVSLHALGQGHICGASLISPNWLVSAAHCYIDDRGFRYSDPTQWTAFLGLHDQSQRSAPGVQERRLKRIISHPFFNDFTFDYDIALLELEKPAEYSSMVRPICLPDASHVFPAGKAIWVTGWGHTQEGGTGALILQKGEIRVINQTTCENLLPQQITPRMMCVGFLSGGVDSCQGDSGGPLSSVEADGRIFQAGVVSWGDGCAQRNNPGVYTRLPLFRDWIKENTGV
B2: modified MT-SP1 CB377 (Y146E/Q175D/K224N) protease domain (protein)
chain: B1 chain with Q169D

Assays:
[1] = biological target: T1, Complement C2 (human)
[2] = biological target: Complement C5 (human)
Sequence of Complement C5 (human) (chain, as listed by the source, chain 1 of 2): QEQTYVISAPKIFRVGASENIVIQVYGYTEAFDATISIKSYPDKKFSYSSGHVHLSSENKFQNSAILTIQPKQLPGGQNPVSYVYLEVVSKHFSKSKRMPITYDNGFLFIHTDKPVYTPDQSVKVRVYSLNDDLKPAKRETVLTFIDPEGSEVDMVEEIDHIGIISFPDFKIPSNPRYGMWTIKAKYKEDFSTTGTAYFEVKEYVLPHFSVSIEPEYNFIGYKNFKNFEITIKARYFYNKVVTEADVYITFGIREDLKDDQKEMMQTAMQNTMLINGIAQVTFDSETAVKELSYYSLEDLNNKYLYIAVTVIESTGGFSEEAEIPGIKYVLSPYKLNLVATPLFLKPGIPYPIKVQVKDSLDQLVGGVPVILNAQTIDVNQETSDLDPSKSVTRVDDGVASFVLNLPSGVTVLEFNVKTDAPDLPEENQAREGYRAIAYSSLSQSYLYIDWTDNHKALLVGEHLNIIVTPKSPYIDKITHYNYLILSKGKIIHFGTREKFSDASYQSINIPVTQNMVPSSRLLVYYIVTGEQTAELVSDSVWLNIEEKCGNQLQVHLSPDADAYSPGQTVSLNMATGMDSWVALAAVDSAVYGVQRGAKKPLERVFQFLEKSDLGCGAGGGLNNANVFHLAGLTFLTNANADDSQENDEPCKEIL
Sequence of Complement C5 (human) (chain, as listed by the source, chain 2 of 2): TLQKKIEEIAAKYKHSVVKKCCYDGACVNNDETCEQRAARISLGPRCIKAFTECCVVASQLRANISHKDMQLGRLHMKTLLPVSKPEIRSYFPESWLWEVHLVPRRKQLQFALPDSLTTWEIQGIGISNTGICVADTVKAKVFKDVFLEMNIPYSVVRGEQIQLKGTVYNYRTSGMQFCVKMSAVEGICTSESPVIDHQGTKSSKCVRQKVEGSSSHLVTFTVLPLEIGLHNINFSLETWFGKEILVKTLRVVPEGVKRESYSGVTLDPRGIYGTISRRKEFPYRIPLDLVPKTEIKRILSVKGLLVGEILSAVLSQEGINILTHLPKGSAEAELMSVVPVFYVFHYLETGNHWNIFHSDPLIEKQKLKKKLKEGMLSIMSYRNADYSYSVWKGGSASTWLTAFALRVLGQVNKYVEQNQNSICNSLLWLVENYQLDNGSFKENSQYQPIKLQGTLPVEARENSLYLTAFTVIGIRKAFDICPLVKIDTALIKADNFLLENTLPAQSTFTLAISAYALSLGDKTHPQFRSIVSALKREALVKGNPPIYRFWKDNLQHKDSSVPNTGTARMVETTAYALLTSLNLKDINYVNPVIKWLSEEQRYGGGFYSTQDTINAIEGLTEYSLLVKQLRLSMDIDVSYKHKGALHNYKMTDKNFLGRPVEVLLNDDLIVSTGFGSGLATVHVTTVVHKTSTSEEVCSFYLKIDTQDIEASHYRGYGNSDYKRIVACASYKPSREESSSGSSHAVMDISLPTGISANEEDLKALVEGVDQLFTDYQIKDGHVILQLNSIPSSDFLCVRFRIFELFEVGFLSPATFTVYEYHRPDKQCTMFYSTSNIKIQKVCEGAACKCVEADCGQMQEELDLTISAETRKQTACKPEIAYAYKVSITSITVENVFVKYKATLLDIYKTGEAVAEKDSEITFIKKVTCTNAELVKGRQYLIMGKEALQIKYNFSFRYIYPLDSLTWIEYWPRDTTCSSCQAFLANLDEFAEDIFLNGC

[3] = biological target: Complement component C6 (human)
[4] = biological target: Complement component C7 (human)
Sequence of Complement component C7 (human) (chain, as listed by the source): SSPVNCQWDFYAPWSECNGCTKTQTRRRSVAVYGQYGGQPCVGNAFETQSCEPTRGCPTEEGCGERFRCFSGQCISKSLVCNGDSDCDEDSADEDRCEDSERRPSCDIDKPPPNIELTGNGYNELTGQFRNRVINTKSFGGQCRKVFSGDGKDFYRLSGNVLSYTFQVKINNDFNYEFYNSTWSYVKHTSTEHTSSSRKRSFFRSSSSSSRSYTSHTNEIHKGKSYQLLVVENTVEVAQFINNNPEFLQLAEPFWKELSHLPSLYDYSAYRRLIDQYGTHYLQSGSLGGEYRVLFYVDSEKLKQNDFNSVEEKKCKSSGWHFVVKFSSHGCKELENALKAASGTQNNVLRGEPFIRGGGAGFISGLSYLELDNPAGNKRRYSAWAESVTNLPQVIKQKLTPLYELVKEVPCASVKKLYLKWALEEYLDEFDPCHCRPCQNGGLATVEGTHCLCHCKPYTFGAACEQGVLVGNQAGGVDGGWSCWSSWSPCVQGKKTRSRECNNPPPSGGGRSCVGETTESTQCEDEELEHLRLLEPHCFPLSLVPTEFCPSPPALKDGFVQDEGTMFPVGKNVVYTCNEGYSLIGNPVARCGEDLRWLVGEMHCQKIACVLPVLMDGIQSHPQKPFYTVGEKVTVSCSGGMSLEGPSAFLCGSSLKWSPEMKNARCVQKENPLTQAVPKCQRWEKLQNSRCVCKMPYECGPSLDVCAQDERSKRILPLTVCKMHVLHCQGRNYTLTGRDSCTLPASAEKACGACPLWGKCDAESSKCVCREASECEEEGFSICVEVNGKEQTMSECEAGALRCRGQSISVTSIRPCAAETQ

[5] = biological target: Complement component C8 (human)
Sequence of Complement component C8 (human) (chain, as listed by the source, chain 1 of 3): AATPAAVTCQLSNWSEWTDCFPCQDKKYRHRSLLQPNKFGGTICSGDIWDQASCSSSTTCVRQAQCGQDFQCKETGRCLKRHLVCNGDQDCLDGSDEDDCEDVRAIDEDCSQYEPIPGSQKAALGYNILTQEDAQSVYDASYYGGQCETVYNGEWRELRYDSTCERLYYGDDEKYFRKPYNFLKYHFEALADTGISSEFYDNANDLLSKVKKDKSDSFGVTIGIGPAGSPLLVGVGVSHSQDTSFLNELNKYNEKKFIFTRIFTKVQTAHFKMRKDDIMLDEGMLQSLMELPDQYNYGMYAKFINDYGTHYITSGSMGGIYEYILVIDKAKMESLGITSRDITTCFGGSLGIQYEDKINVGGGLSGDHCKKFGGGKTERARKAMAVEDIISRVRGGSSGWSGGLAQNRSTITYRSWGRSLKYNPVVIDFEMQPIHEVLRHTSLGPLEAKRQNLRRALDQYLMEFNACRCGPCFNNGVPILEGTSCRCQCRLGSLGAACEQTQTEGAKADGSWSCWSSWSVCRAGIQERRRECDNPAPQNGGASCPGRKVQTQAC
Sequence of Complement component C8 (human) (chain, as listed by the source, chain 2 of 3): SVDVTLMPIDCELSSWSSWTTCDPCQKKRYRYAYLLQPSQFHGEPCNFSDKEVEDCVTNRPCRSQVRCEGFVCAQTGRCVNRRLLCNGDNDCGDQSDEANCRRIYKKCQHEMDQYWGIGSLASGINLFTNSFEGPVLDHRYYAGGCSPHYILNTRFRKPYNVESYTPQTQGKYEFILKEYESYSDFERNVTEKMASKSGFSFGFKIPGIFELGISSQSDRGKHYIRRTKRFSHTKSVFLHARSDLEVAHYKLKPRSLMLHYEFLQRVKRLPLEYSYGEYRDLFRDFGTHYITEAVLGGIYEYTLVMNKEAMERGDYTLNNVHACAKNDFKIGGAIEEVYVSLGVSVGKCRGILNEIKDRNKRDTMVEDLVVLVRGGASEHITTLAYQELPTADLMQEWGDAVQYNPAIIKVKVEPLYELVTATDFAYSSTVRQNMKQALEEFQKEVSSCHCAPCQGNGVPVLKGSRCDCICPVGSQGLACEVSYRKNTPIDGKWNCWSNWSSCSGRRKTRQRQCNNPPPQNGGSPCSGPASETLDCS
Sequence of Complement component C8 (human) (chain, as listed by the source, chain 3 of 3): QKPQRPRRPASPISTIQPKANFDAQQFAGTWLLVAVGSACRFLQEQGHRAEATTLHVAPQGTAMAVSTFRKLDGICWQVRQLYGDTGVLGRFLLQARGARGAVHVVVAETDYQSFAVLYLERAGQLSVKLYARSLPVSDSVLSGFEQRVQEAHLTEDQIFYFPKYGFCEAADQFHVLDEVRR

[6] = biological target: Complement component C9 (human)
Sequence of Complement component C9 (human) (chain, as listed by the source): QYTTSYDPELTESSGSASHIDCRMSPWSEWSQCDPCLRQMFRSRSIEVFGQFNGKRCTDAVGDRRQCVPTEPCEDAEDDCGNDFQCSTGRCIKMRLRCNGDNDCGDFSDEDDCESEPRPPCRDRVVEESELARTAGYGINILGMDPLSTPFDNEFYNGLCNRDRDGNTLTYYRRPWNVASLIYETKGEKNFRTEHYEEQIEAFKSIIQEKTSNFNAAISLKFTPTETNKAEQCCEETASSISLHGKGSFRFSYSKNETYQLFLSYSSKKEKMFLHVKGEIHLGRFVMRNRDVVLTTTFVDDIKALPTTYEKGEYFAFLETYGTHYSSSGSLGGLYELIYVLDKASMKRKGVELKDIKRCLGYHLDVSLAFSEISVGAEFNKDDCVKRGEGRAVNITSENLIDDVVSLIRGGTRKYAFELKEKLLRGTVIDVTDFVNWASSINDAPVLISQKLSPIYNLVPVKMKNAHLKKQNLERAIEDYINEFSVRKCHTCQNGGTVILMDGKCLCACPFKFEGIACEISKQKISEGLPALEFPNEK

[7] = biological target: T2, rat complement C2 (in plasma of treated …)

Protein	cleavage in 90% human plasma by Western blot [1]	cleavage of purified C2 by 100 nM protease, SDS-PAGE and Coomassie [1]	fraction C5b-9 generated, Total Complement System Screen (classical and MBL pathways), 1 uM protease in human plasma [1]	hemolysis (OD415) by protease-preincubated purified complement protein added back to the corresponding depleted sera [1]	hemolysis (OD415) by protease-preincubated purified complement protein added back to the corresponding depleted sera [2]	hemolysis (OD415) by protease-preincubated purified complement protein added back to the corresponding depleted sera [3]	hemolysis (OD415) by protease-preincubated purified complement protein added back to the corresponding depleted sera [4]	hemolysis (OD415) by protease-preincubated purified complement protein added back to the corresponding depleted sera [5]	hemolysis (OD415) by protease-preincubated purified complement protein added back to the corresponding depleted sera [6]	C2 Western blot of plasma from rats dosed IV with the protease [7]
B1	cleaved C2 in human plasma in a dose-dependent manner	C2 was almost completely degraded to yield cleavage products of about 70 kD and 23 kD corresponding to C2a and C2b, respectively	the fraction C5b-9 generated upon complement activation induced by the classical and MBL pathways was almost completely inhibited	resulted in an inhibition of hemolysis as assessed by a reduced OD415 absorbance to levels comparable to the depleted sera control	showed no decreased hemolysis as compared to normal sera or the no protease control	showed no decreased hemolysis as compared to normal sera or the no protease control	showed no decreased hemolysis as compared to normal sera or the no protease control	showed no decreased hemolysis as compared to normal sera or the no protease control	showed no decreased hemolysis as compared to normal sera or the no protease control	CB252 showed a greater cleavage of C2 as there was little detectable C2 present in the plasma samples as assessed by Western Blot even after only 5 minutes following injection, with no detectable C2 present at 60 or 120 minutes after injection
B2	cleaved C2 in human plasma in a dose-dependent manner	C2 was almost completely degraded to yield cleavage products of about 70 kD and 23 kD corresponding to C2a and C2b, respectively	the fraction C5b-9 generated upon complement activation induced by the classical and MBL pathways was almost completely inhibited	resulted in an inhibition of hemolysis as assessed by a reduced OD415 absorbance to levels comparable to the depleted sera control	showed no decreased hemolysis as compared to normal sera or the no protease control	showed no decreased hemolysis as compared to normal sera or the no protease control	showed no decreased hemolysis as compared to normal sera or the no protease control	showed no decreased hemolysis as compared to normal sera or the no protease control	showed no decreased hemolysis as compared to normal sera or the no protease control	CB377 also showed diminished C2 levels as compared to vehicle control at early time points, however, by 60 minutes and 120 minutes the levels of C2 were comparable to those from vehicle control samples
